Measurements taken from publication PMC6047364, “A Novel PLP-Dependent Alanine/Serine Racemase From the Hyperthermophilic Archaeon Pyrococcus horikoshii OT-3” (Frontiers in Microbiology, 2018).

Key:
[1] = molecular target: T1, PH1501 (Pyrococcus horikoshii, UniProt O59170); test: UPLC detection of D-amino acid; format: biochemical; conditions: partially purified (heat-treated) enzyme; 100 mM HEPES pH 7.0, 10 mM L-amino acid, 0.04 mM PLP, 80°C, 60 min; slight peak
T1 construct: full-length, pET11a (NdeI/BamHI), no tag described, E. coli BL21 (DE3), partially purified by heat treatment at 90°C; about 50 kDa on SDS-PAGE
T1 sequence (O59170 1-438): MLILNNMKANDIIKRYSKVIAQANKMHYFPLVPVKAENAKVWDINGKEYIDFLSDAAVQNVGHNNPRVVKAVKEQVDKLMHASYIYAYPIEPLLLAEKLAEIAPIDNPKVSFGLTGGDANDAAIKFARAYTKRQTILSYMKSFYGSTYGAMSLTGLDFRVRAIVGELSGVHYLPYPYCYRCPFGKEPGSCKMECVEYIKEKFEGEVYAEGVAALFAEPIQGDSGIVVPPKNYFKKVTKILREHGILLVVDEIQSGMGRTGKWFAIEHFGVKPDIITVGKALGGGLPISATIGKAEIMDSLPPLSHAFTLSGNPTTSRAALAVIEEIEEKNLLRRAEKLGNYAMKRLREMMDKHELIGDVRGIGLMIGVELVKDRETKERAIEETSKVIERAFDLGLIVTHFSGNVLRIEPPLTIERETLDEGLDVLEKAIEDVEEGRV

[2] = molecular target: T2, PH0782; Ala/Ser racemase (ASR) (Pyrococcus horikoshii, UniProt O58478); test: apo-enzyme reactivation, racemase activity; format: biochemical; conditions: apo-enzyme prepared at 80°C for 18 h in assay mixture with L-Ala; covalent (Schiff base, K291 suggested)
T2 construct: full-length, pET11a (NdeI/BglII), no tag described, E. coli BL21 (DE3), purified; hexamer about 300 kDa; fold type I PLP enzyme

[3] = molecular target: the molecule itself; test: SEC; gel filtration on HiLoad 26/60 Superdex 200 with molecular mass standards (thyroglobulin, gamma-globulin, ovalbumin, myoglobin); native mass about 300 kDa against a subunit of 50.5 kDa (calculated)
[4] = substrate: C[C@@H](N)C(=O)O; test: purified protein; conditions: 100 mM HEPES pH 7.0, 0.04 mM PLP, 80°C, racemization to L-Ala, apparent
[5] = substrate: C[C@H](N)C(=O)O; test: purified protein; conditions: 100 mM HEPES pH 7.0, 0.04 mM PLP, 80°C, racemization to D-Ala, apparent
[6] = substrate: N[C@@H](CO)C(=O)O; test: purified protein; conditions: 100 mM HEPES pH 7.0, 0.04 mM PLP, 80°C, racemization to D-Ser, apparent
[7] = substrate: N[C@H](CO)C(=O)O; test: purified protein; conditions: 100 mM HEPES pH 7.0, 0.04 mM PLP, 80°C, racemization to L-Ser, apparent

In the case of `CSCC[C@H](N)C(=O)O` [Met], the “UPLC detection of D-amino acid” value [1] is reported as “Slight peaks for the D-forms of Met, Phe, and Leu were detected”.

For `Cc1ncc(COP(=O)(O)O)c(C=O)c1O` [pyridoxal 5′-phosphate], the “apo-enzyme reactivation, racemase activity” value [2] was “apo-enzyme exhibited no activity in the absence of PLP and recovered its activity by addition”.

`N[C@@H](Cc1ccccc1)C(=O)O` [Phe] was tested, and the “UPLC detection of D-amino acid” value [1] was “Slight peaks for the D-forms of Met, Phe, and Leu were detected”.

B1: Ala/Ser racemase (ASR), the protein encoded by PH0782, from Pyrococcus horikoshii OT-3 (enzyme, UniProt O58478 1-474, looked up)
chain: MPFLPFSYYPFSLEVILMEYPKIVVKPPGPRAKELIEREKKVLSTGIGVKLFPLVPKRGFGPFIEDVDGNVFIDFLAGAAAASTGYAHPKLVKAVKEQVELIQHSMIGYTHSERAIRVAEKLVEISPIENSKVIFGLSGSDAVDMAIKVSKFSTRRPWILAFIGAYHGQTLGATSVASFQVSQKRGYSPLMPNVFWIPYPNPFRNIWGINGYEEPDELINRVLDYLEYYVFSHVVPPDEVAALFAEPIQGDAGIVVPPENFFKELKKLLEEYGILLVMDEVQTGIGRTGKWFASEWFNVKPDMIIFGKGVASGMGLSGVIGRKEIMDITSGSALLTPAANPVISAAAEATLEIIEEENLLKNALEVGEFIMGRLKEIKERFEIIGDVRGKGLMIGVEIVKENGRPDPEMTGKICWRAFELGLILPSYGMFGNVIRITPPLVLTKEVAEKALEIIERAIKDTLTGKVERKVVTWH
notes: Ala/Ser racemase encoded by ORF PH0782 of Pyrococcus horikoshii OT-3 (annotated as a putative GABA aminotransferase); amplified from genomic DNA with primers from the initiation codon to the termination codon; calculated subunit mass 50.5 kDa; PLP-dependent enzyme; also called BAR homolog; source: E. coli BL21 (DE3), pET11a/PH0782, purified (heat treatment, butyl-Toyopearl, DEAE-cellurofine)
For B1, the “stoichiometry N” value [3] was 6.

B2: PH0782; Ala/Ser racemase (ASR) (Pyrococcus horikoshii OT3) (protein)
chain: MEYPKIVVKPPGPRAKELIEREKKVLSTGIGVKLFPLVPKRGFGPFIEDVDGNVFIDFLAGAAAASTGYAHPKLVKAVKEQVELIQHSMIGYTHSERAIRVAEKLVEISPIENSKVIFGLSGSDAVDMAIKVSKFSTRRPWILAFIGAYHGQTLGATSVASFQVSQKRGYSPLMPNVFWIPYPNPFRNIWGINGYEEPDELINRVLDYLEYYVFSHVVPPDEVAALFAEPIQGDAGIVVPPENFFKELKKLLEEYGILLVMDEVQTGIGRTGKWFASEWFNVKPDMIIFGKGVASGMGLSGVIGRKEIMDITSGSALLTPAANPVISAAAEATLEIIEEENLLKNALEVGEFIMGRLKEIKERFEIIGDVRGKGLMIGVEIVKENGRPDPEMTGKICWRAFELGLILPSYGMFGNVIRITPPLVLTKEVAEKALEIIERAIKDTLTGKVERKVVTWH
In the case of B2, the Km [4] is reported as 5.5 ± 0.59 mM, the Vmax [4] is reported as 49.5 µmol/min/mg and the kcat/Km [4] is reported as 7580 M⁻¹ s⁻¹. The Km [5] was 3.3 ± 0.22 mM, the Vmax [5] was 28.2 µmol/min/mg and the kcat/Km [5] was 7190 M⁻¹ s⁻¹. The Km [6] was 4.5 ± 0.32 mM, the Vmax [6] was 31.4 µmol/min/mg and the kcat/Km [6] was 5870 M⁻¹ s⁻¹. The Km [7] was 5.9 ± 0.40 mM, the Vmax [7] was 41.2 µmol/min/mg and the kcat/Km [7] was 5880 M⁻¹ s⁻¹.
